Results published in patent US20250027945A1 (University of California, published 2025).

Assays:
[1] = molecular target: T1, human RYK on the surface of human tumor cell lines (human, UniProt P34925 46-607); test: flow cytometry, RAMOS cells (Burkitt NHL), 5 ug/ml 2-D11-Alexa647; line unmarked (no staining)
T1 construct: whole, on cells; Endogenous expression
Experimental: (§1) Table 1 provides the flow cytometry data on various cancer cell lines stained with fluorochrome-conjugated 2-D11, as depicted in FIG. 8. The name of each cell line is listed in the first column and the tissue of origin is listed in the second column. Binding of the 2-D11 mAb to human RYK was assessed by flow cytometric staining and analysis by staining on ice for 20 minutes with 5 μg/ml of 2-D11 anti-human RYK-Alexa647 conjugated mAb or equal amounts of isotype matched control mAb, washed, and analyzed. The median fluorescence intensity (MFI) of 2-D11 stained cells is listed in the middle column and the MFI of isotype control stained cells are listed in the in the adjacent column. Cell lines were scored as “++”, “+”, or neg (unmarked with “+”) lines based on the ratio of median fluorescence intensity (MFI) of stained cells relative to the MFI of isotype control stained cells (MFIR).
(§2) The name of each cell line is listed in the first column and the tissue of origin is listed in the second column. Binding of the 2-D11 mAb to human RYK was assessed by flow cytometric staining and analysis by staining on ice for 20 minutes with 5 μg/ml of 2-D11 anti-human RYK-Alexa647 conjugated mAb or equal amounts of isotype matched control mAb, washed and analyzed. […]

[2] = molecular target: T1, human RYK on the surface of human tumor …; test: flow cytometry, A673 cells (Ewings sarcoma), 5 ug/ml 2-D11-Alexa647
Experimental: as §1, §2

[3] = molecular target: T1, human RYK on the surface of human tumor …; test: flow cytometry, SK-MEL-2 cells (skin), 5 ug/ml 2-D11-Alexa647; line unmarked (no staining)
Experimental: as §1, §2

[4] = molecular target: T1, human RYK on the surface of human tumor …; test: flow cytometry, K562 cells (CML), 5 ug/ml 2-D11-Alexa647
Experimental: as §1, §2

[5] = molecular target: T1, human RYK on the surface of human tumor …; test: flow cytometry, SH-SY5Y cells (brain), 5 ug/ml 2-D11-Alexa647
Experimental: as §1, §2

[6] = molecular target: T1, human RYK on the surface of human tumor …; test: flow cytometry, NCI H1155 cells (lung), 5 ug/ml 2-D11-Alexa647; line unmarked (no staining)
Experimental: as §1, §2

[7] = molecular target: T1, human RYK on the surface of human tumor …; test: flow cytometry, A549 cells (lung), 5 ug/ml 2-D11-Alexa647
Experimental: as §1, §2

[8] = molecular target: T1, human RYK on the surface of human tumor …; test: flow cytometry, NCI H929 cells (melanoma as printed), 5 ug/ml 2-D11-Alexa647; line unmarked (no staining)
Experimental: as §1, §2

[9] = molecular target: T1, human RYK on the surface of human tumor …; test: flow cytometry, CAPAN-1 cells (pancreas), 5 ug/ml 2-D11-Alexa647
Experimental: as §1, §2

[10] = molecular target: T1, human RYK on the surface of human tumor …; test: flow cytometry, NCI H226 cells (lung), 5 ug/ml 2-D11-Alexa647
Experimental: as §1, §2

[11] = molecular target: T1, human RYK on the surface of human tumor …; test: flow cytometry, H292 cells (lung), 5 ug/ml 2-D11-Alexa647; line unmarked (no staining)
Experimental: as §1, §2

[12] = molecular target: T1, human RYK on the surface of human tumor …; test: flow cytometry, MEC1 cells (CLL), 5 ug/ml 2-D11-Alexa647; line unmarked (no staining)
Experimental: as §1, §2

[13] = molecular target: T1, human RYK on the surface of human tumor …; test: flow cytometry, COLO 829 cells (melanoma), 5 ug/ml 2-D11-Alexa647
Experimental: as §1, §2

[14] = molecular target: T1, human RYK on the surface of human tumor …; test: flow cytometry, MINO cells (mantle), 5 ug/ml 2-D11-Alexa647
Experimental: as §1, §2

[15] = molecular target: T1, human RYK on the surface of human tumor …; test: flow cytometry, MDA-MB-231 cells (breast), 5 ug/ml 2-D11-Alexa647; line unmarked (no staining)
Experimental: as §1, §2

[16] = molecular target: T1, human RYK on the surface of human tumor …; test: flow cytometry, HT144 cells (skin), 5 ug/ml 2-D11-Alexa647
Experimental: as §1, §2

[17] = molecular target: T1, human RYK on the surface of human tumor …; test: flow cytometry, MOLT4 cells (T-cell ALL), 5 ug/ml 2-D11-Alexa647; line unmarked (no staining)
Experimental: as §1, §2

[18] = molecular target: T1, human RYK on the surface of human tumor …; test: flow cytometry, OVCAR4 cells (ovarian), 5 ug/ml 2-D11-Alexa647
Experimental: as §1, §2

[19] = molecular target: T1, human RYK on the surface of human tumor …; test: flow cytometry, T47-D cells (breast), 5 ug/ml 2-D11-Alexa647
Experimental: as §1, §2

[20] = molecular target: T1, human RYK on the surface of human tumor …; test: flow cytometry, NALM6 cells (ALL), 5 ug/ml 2-D11-Alexa647; line unmarked (no staining)
Experimental: as §1, §2

T1 sequence (P34925 46-607 limits assumed, form in doubt): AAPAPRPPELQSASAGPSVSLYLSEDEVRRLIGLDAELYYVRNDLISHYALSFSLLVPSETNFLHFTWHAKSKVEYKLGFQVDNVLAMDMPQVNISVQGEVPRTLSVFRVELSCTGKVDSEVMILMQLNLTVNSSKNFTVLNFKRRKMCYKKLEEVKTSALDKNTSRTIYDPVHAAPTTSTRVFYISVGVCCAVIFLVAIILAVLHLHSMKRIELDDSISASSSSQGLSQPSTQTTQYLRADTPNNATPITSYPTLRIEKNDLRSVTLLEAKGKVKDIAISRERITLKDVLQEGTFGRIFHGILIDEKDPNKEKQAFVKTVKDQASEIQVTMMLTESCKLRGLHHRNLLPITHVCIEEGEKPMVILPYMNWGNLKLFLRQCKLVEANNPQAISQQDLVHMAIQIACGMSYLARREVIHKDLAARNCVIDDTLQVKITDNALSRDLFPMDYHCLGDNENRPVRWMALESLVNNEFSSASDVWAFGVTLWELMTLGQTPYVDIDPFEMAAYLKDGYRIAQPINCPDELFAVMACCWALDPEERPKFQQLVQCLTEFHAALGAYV

B1: 2-D11 anti-human RYK mAb (antibody, V domains shown)
VH: QVQLKESGPGLVAPSQSLSITCSVSGFSLNDYGVNWVRQPPGKDLEWLGMIWGDGVTEYNSTLKSRLSISKDNSKSQVFLKMNNLQTEDTARYYCVRQGSGVWFAHWGQGTLVSVSS
VL: DVLVTQTPLSLPVSLGDQASISCRSSQTIVHSNGNTYLEWYLQKPGQSPKLLIYKVSNRFSGVPDRFSGSGSGTDFTLKISRVEAEDLGIYYCFQGSHVPYTFGGGTKLEIK
notes: Mouse hybridoma mAb, kappa light chain, detected with anti-mouse IgG; also called mAb 2-D11; 2-D11 anti-human RYK-Alexa647 conjugated mAb
[1]
  MFIR (MFI ratio to isotype control): 1.1
[2]
  MFIR (MFI ratio to isotype control): 1.5
[3]
  MFIR (MFI ratio to isotype control): 1.1
[4]
  MFIR (MFI ratio to isotype control): 1.5
[5]
  MFIR (MFI ratio to isotype control): 2
[6]
  MFIR (MFI ratio to isotype control): 1.3
[7]
  MFIR (MFI ratio to isotype control): 1.5
[8]
  MFIR (MFI ratio to isotype control): 1.2
[9]
  MFIR (MFI ratio to isotype control): 1.5
[10]
  MFIR (MFI ratio to isotype control): 2
[11]
  MFIR (MFI ratio to isotype control): 1.3
[12]
  MFIR (MFI ratio to isotype control): 1.1
[13]
  MFIR (MFI ratio to isotype control): 2.3
[14]
  MFIR (MFI ratio to isotype control): 2
[15]
  MFIR (MFI ratio to isotype control): 1.1
[16]
  MFIR (MFI ratio to isotype control): 1.6
[17]
  MFIR (MFI ratio to isotype control): 0.9
[18]
  MFIR (MFI ratio to isotype control): 2.1
[19]
  MFIR (MFI ratio to isotype control): 2
[20]
  MFIR (MFI ratio to isotype control): 1.3
